Experiments:
[1] = target: T1, 2019-nCoV N蛋白抗原 (2019-nCoV (新型冠状病毒), UniProt P0DTC9 1-419); assay: AMC sensor, antibody captured at 10 μg/mL, N protein antigen in serial dilution in PBST
T1 construct: also called 新型冠状病毒N蛋白; 核衣壳蛋白(N蛋白)

[2] = target: T1, 2019-nCoV N蛋白抗原

B1: 抗新型冠状病毒的IgG抗体9B54 (antibody)
heavy: EVLLQQSGPELVNPGASVKIPCKASGYTFTDYNMGWVKQSHGKSLEWIGAIIPNNGGTIYNQKFKGKATLTVDESSSTAYMELRSLTSEDTAVYYCAREAYRDYDVKTWFAYWGQGTLVTVSAAKTTPPSVYPLAPGSAAQTNSMVTLGCLVKGYFPEPVTVTWNSGSLSSGVHTFPAVLQSDLYTLSSSVTVPSSTWPSETVTCNVAHPASSTKVDKKIVPRDCGCKPCICTVPEVSSVFIFPPKPKDVLTITLTPKVTCVVVDISKDDPEVQFSWFVDDVEVHTAQTQPREEQFNSTFRSVSELPIMHQDWLNGKEFKCRVNSAAFPAPIEKTISKTKGRPKAPQVYTIPPPKEQMAKDKVSLTCMITDFFPEDITVEWQWNGQPAENYKNTQPIMDTDGSYFVYSKLNVQKSNWEAGNTFTCSVLHEGLHNHHTEKSLSHSPGK
light: DLQMTQTTSSLSASLGDRVTISCSASQGIRNYLNWYQQKPDGTVKLLIYYTSTLHSGVPSRFSGSGSGTDYSLTISNLEPEDIATYFCQQYSKFPYTFGGGTKLEIKRADAAPTVSIFPPSSEQLTSGGASVVCFLNNFYPKDINVKWKIDGSERQNGVLNSWTDQDSKDSTYSMSSTLTLTKDEYERHNSYTCEATHKTSTSPIVKSFNRNEC
For B1, the Kd [1] was 0.102 nM, the koff [1] was 0.000113 s⁻¹ and the kon [1] was 1.11e+06 M⁻¹ s⁻¹. The “OD450 (ref. 630 nm) of cell supernatant diluted 1000-fold” value [2] was over 1.

B2: 抗新型冠状病毒的类IgM抗体8C21 (antibody)
heavy: EVLLQQSGPELVNPGASVKIPCKASGYTFTDYNMGWVKQSHGKSLEWIGAIIPNNGGTIYNQKFKGKATLTVDESSSTAYMELRSLTSEDTAVYYCAREAYRDYDVKTWFAYWGQGTLVTVSAAKTTPPSVYPLAPGSAAQTNSMVTLGCLVKGYFPEPVTVTWNSGSLSSGVHTFPAVLQSDLYTLSSSVTVPSSTWPSETVTCNVAHPASSTKVDKKIVPRDCPAVAEMNPNVNVFVPPRDGFSGPAPRKSKLICEATNFTPKPITVSWLKDGKLVESGFTTDPVTIENKGSTPQTYKVISTLTISEIDWLNLNVYTCRVDHRGLTFLKNVSSTCAASPSTDILTFTIPPSFADIFLSKSANLTCLVSNLATYETLNISWASQSGEPLETKIKIMESHPNGTFSAKGVASVCVEDWNNRKEFVCTVTHRDLPSPQKKFISKPNEVHKHPPAVYLLPPAREQLNLRESATVTCLVKGFSPADISVQWLQRGQLLPQEKYVTSAPMPEPGAPGFYFTHSILTVTEEEWNSGETYTCVVGHEALPHLVTERTVDKSTGKPTLYNVSLIMSDTGGTCY
light: B1 light
notes: IgM-like antibody made by replacing part of the constant region of 9B54 with that of IgM
With B2 the Kd [1] was 0.031 nM, the koff [1] was 6.56e-05 s⁻¹ and the kon [1] was 2.11e+06 M⁻¹ s⁻¹.

From patent publication CN117088968A (DONGGUAN PENGZHI BIOTECHNOLOGY CO LTD, dated 2023)
